Measurements taken from US20210380703A1 (RIGEL PHARMACEUTICALS, published 2021).
Residue numbers refer to the chain shown, from its start.

B1: 369_G01 (antibody, V domains shown)
VH: EVQLLESGGGLVQPGGSLRLSCAASGFTFSSYSMNWVRQAPGKGLEWVSNINYNSGYKSYADSVKGRFTISRDNSKNTLYLQMNSLRAEDTAVYYCARSANWHDTALDYWGQGTLVTVSS
VL: DIQMTQSPSSLSASVGDRVTITCRASQSILSYVNWYQQKPGKAPKLLIYAATSRASGVPSRFSGSGSGTDFTLTISSLQPEDFATYYCQQSYSSPLTFGGGTKVEIK
B2: 370_C08 (antibody, V domains shown)
VH: B1 VH with S33G, S49A, N50G, S55G, S59G
VL: B1 VL with L30S, S31N, V33L, A51V, S93D
B3: 369_G04 (antibody, V domains shown)
VH: B1 VH with S30D, N50G, S55G, K58T
VL: B1 VL with S31T, A51T, A55H, S93E, S94T
B4: 370_C03 (antibody, V domains shown)
VH: B1 VH with S33G, S49A, N50G, S55G, S59G
VL: B1 VL with S31T, V33L, A50Y, A51V, S53N, A55Q
B5: 370_A04 (antibody, V domains shown)
VH: B1 VH with S30D, N50G, S55G, K58T
VL: B1 VL with L30I, S31T, V33L, S93D, S94N
B6: 370_C01 (antibody, V domains shown)
VH: B1 VH with S30D, N50G, K58T, S59G
VL: B1 VL with S31T, V33L, L47V, R54L, S93D, S94T
B7: 370_E09 (antibody, V domains shown)
VH: B1 VH with S30D, S31D, Y32S, N35H, S55G, K58T, S59G, R98K
VL: B1 VL with L47V, S93E, S94L
B8: 369_G11 (antibody, V domains shown)
VH: B1 VH with S49A, S59G
VL: B1 VL with S31T, V33L, R54L, S93E
B9: 370_E03 (antibody, V domains shown)
VH: B1 VH with S33G, N50S, S55G, S59G
VL: B1 VL with S31T, V33L, L47V, A50Y, T52S, S53N, S93D
B10: 369_H05 (antibody, V domains shown)
VH: B1 VH with S33G, S49A, S55G, K58T, S59G
VL: B1 VL with L30V, S94N
B11: 370_F07 (antibody, V domains shown)
VH: B1 VH with S30D, S55G, S59G
VL: B1 VL with V33L, S93N, S94L
B12: 370_G03 (antibody, V domains shown)
VH: B1 VH with S49A, S55G, K58T, S59G
VL: B1 VL with S31T, L47V, A51T, S93N, S94N
B13: 369_G06 (antibody, V domains shown)
VH: B1 VH with S30D, S33G, S49A, N50G, S55G, K58T
VL: B1 VL with L47V, S93E, S94N
B14: 369_H06 (antibody, V domains shown)
VH: B1 VH with S33G, S49A, S55G
VL: B1 VL with L30V, S93D, S94T
B15: 370_A12 (antibody, V domains shown)
VH: B1 VH with S33G, S49A, N50G, S55G, K58T
VL: B1 VL with S31T, V33L, R54L, S93D
B16: 370_D04 (antibody, V domains shown)
VH: B1 VH with S30D, S49A, S59G
VL: B1 VL with S31T, V33L, L47V, S93D, S94N
B17: 370_G02 (antibody, V domains shown)
VH: B1 VH with S31D, S49A, S55G, S59G
VL: B1 VL with L30V, V33L, A55H, S93D
B18: 370_C09 (antibody, V domains shown)
VH: B1 VH with S30D, S33G, N50G, S55G, K58T
VL: B1 VL with L30I, V33L, L47V, R54L, S94T
B19: 370_C05 (antibody, V domains shown)
VH: B1 VH with S49A, N50G, K58T, S59G
VL: B1 VL with L47V, S93N
B20: 370_D11 (antibody, V domains shown)
VH: B1 VH with S30D, N50G, S55G, K58T, S59G
VL: B1 VL with L30V, V33L, S93D, S94T
B21: 369_G12 (antibody, V domains shown)
VH: B1 VH with S49A, S55G, K58T, S59G
VL: B1 VL with S31T, L47V, A55H, Y92D, S93N, S94T
B22: 370_A01 (antibody, V domains shown)
VH: B1 VH with N50G
VL: B1 VL with L30S, S31T, V33L, L47V, S93N, S94L
B23: 369_H09 (antibody, V domains shown)
VH: B1 VH with S30D, S31D, N50G, S55G, K58T
VL: B1 VL with A51V, R54L, S93E
B24: 370_E06 (antibody, V domains shown)
VH: B1 VH with S33G, N50G
VL: B1 VL with V33L, L47V, A51T, R54L, S93D, S94T
B25: 370_F10 (antibody, V domains shown)
VH: B1 VH with S49A, N50G, S55G, K58T
VL: B1 VL with L30V, V33L, L47V, S93N
B26: 370_F05 (antibody, V domains shown)
VH: B1 VH with S33G, N50G, K58T
VL: B1 VL with L30V, L47V, S93E, S94T

target: T1, Goat anti-Human Kappa; experiment: ELISA, positive control
T1 construct: Positive control of the ELISA; also called biotinylated goat anti-human kappa light chain
How it was run: (§1)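 Monoclonal antibodies were first applied to human or mouse ACVR2A, alongside biotinylated goat anti-human kappa light chain (positive control) and human Fc (negative control); binding was then determined by ELISA.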
Further: test concentration or dose not given here.

optical density [OD]	Binder
3.44	B1
3.11	B2
3.32	B3
3.57	B4
3.48	B5
3.62	B6
3.6	B7
2.59	B8
3.57	B9
3.54	B10
3.52	B11
3.58	B12
3.38	B13
3.5	B14
3.72	B15
3.6	B16
3.62	B17
3.48	B18
3.56	B19
3.38	B20
2.65	B21
3.62	B22
3.51	B23
3.61	B24
3.64	B25
3.54	B26

target: T2, Human ACVR2A (human, UniProt P27037 20-135, limits assumed); experiment: ELISA
T2 construct: also called activin receptor, type II A
T2 sequence (P27037 20-135 limits assumed): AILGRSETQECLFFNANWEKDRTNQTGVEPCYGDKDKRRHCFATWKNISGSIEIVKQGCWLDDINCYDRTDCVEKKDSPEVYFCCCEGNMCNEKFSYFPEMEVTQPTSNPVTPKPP
How it was run: as §1

optical density [OD]	Binder
3.57	B1
2.73	B2
2.37	B3
3.59	B4
2.57	B5
3.29	B6
3.45	B7
3.03	B8
3.64	B9
3.25	B10
3.45	B11
3.1	B12
2.98	B13
3.23	B14
3.06	B15
3.59	B16
2.98	B17
1.97	B18
3.21	B19
2.72	B20
1.77	B21
2.86	B22
2.36	B23
2.9	B24
3.15	B25
2.76	B26

target: Mouse ACVR2A (mouse, UniProt P27038 20-135, limits assumed); experiment: ELISA
Sequence (P27038 20-135 limits assumed): as the sequence (P27037 20-135 limits assumed) above, with K20R, V73I counted along it
How it was run: as §1

optical density [OD]	Binder
3.67	B1
2.97	B2
2.69	B3
3.77	B4
2.74	B5
3.38	B6
3.56	B7
3.06	B8
3.74	B9
3.34	B10
3.53	B11
3.44	B12
2.91	B13
3.56	B14
3.19	B15
3.74	B16
3.22	B17
2.25	B18
3.55	B19
2.79	B20
1.88	B21
2.96	B22
2.64	B23
3.02	B24
3.22	B25
2.91	B26
